Here are results for three substances from article PMC8928829.

In the assay the target is NIH-CoVnb-112. Description: BLI.
Sequence of NIH-CoVnb-112 (heavy, as listed by the source): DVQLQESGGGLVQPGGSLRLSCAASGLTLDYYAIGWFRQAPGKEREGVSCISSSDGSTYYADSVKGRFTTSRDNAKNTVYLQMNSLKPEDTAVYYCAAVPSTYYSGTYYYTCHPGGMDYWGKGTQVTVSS

On to “SARS-CoV-2 RBD K417N (from UniProt P0DTC2) (domain or fragment)”, for which the Kd came out at 1.42 nM.

Substance “SARS-CoV-2 RBD T478K (from UniProt P0DTC2) (domain or fragment)” registered a Kd of 0.497 nM. Then “SARS-CoV-2 RBD L452R (from UniProt P0DTC2) (domain or fragment)”, with 4.88 nM.

What is called Kd is the free concentration of one partner at which half of the binding sites on the other are occupied at equilibrium, for simple one-to-one binding.
